“Also recorded” adds a separate entry of the source. Read-outs that look alike come from different tables or passages of the source.
Tests used:
[1] = target: ErbB2 on cells (SKBR3, SK-OV-3, MCF7 tumor cell lines) (UniProt P04626); assay: cell-based or functional assay
[2] = target: ErbB2 on cells (SKBR3, SK-OV-3, MCF7 tumor cell lines) (UniProt P04626); assay: 5.0 × 10^11 phage on about 1.0 × 10^5 SKBR3 cells at 37° C.; surface bound phage eluted with low pH glycine, titered on E. coli TG1
[3] = test system: SKBR3 cells; type: cell-based
[4] = test system: SKBR3 cells; type: cell-based; remark: listed apart in the source
[5] = test system: tumor; conditions: cited from earlier work
[6] = test system: SK-OV-3 cells; conditions: in vitro; cited from earlier work
[7] = target: ErbB2 on cells (SKBR3, SK-OV-3, MCF7 tumor cell lines) (UniProt P04626)
[8] = target: T1, ErbB2 (form in the assay not stated) (UniProt P04626 23-1255); assay: method and form of ErbB2 not stated
T1 construct: also called c-erbB2

[9] = test system: MCF7 cells; assay: Staining of MCF7 cells by phage antibodies or native scFv; type: cell-based; conditions: low ErbB2 expression
[10] = test system: SK-OV-3 cells; assay: Staining of SK-OV-3 cells by native scFv; type: cell-based; conditions: moderate ErbB2 expression
[11] = test system: normal breast cell line HST578; assay: Staining of normal breast cell line by phage antibodies or native scFv; type: cell-based
[12] = target: ErbB2 (Homo sapiens, UniProt P04626); assay: Epitope mapping competition assay: inhibition of phage binding by soluble scFv
Description: Bound phages were detected with an anti-M13 biotinylated Ab and streptavidin-PE.
Neither of these phage were isolated when the same library was selected on recombinant ErbB2. […] This was confirmed using a competition assay (FIG. 2).

[13] = Gel filtration of native scFv; type: physicochemical
[14] = test system: SKBR3 cells; assay: Staining of SKBR3 cells by phage antibodies or native scFv; conditions: high ErbB2 expression; for staining of SKBR3 cells by phage antibody: phage-displayed
[15] = increasing concentrations of soluble scFv, bound phage by anti-M13 biotinylated Ab and streptavidin-PE, MFI

Molecule: C6.5 diabody phage
- cells that had internalized phage (confocal microscopy, SKBR3 cells) [1]: 20%
- phage titer, Lysed cell fraction (internalized phage) [1]: 1.7e+07
- titer of cell surface bound phage, 1st glycine wash [2]: 1.8e+07
- titer of cell surface bound phage, 2nd glycine wash [2]: 2.8e+06

Molecule: C6.5 diabody: dimeric scFv from C6.5 V-genes, linker between VH and VL shortened from 15 to 5 amino acids
- cells that had internalized phage ([3]; 37° C.): ~20%
- increase of titer after cell lysis from the second glycine wash [4]: > 50 fold
- more phage bound to the cell surface than the anti-Botulinum phage [4]: 30 times
- phage titer, 1st glycine wash [4]: 1.8 × 10^7
- phage titer, 2nd glycine wash [4]: 2.8 × 10^6
- phage titer, lysed cell fraction [4]: 1.7 × 10^7
- recovery of phage from inside the cell, higher than for anti-Botulinum phage [4]: 200 fold
- % ID/g tumor ([5]; at 24 hours, diabody study): 6.5 % ID/g
- tumor:organ AUC ratios ([5]; retentions examined over 72 hours, cumulative AUC): greater than reported for other monovalent or divalent scFv molecules
- apparent affinity compared to C6.5 scFv [6]: significantly higher

Molecule: C6.5 phage (anti-ErbB2 C6.5 scFv displayed on phage)
- phage titer, Lysed cell fraction (internalized phage) [1]: 6.8e+07
- titer of cell surface bound phage, 1st glycine wash [2]: 1.2e+07
- titer of cell surface bound phage, 2nd glycine wash [2]: 5.2e+06

Molecule: irrelevant anti-Botulinum phage (scFv)
- titer of cell surface bound phage, 1st glycine wash [7]: 600000
- titer of cell surface bound phage, 2nd glycine wash [7]: 100000
- phage titer, Lysed cell fraction (internalized phage) [1]: 600000

B1: F5 scFv (native purified soluble scFv) (scFv, not shown: small tags and cut ends)
scFv: QVQLVESGGGLVQPGGSLRLSCAASGFTFRSYAMSWVRQAPGKGLEWVSAISGRGDNTYYADSVKGRFTISRDNSKNTLYLQMNSLRAEDTAVYYCAKMTSNAFAFDYWGQGTLVTVSSGGGGSGGGGSGGGGSQSVLTQPPSVSGAPGQRVTISCTGSSSNIGAGYGVHWYQQLPGTAPKLLIYGNTNRPSGVPDRFSGFKSGTSASLAITGLQAEDEADYYCQFYDSSLSGWVFGGGTKLTVLG
notes: also called 3TF5; scFv-F5
- Kd [8]: 320 nM

B2: F5: internalizing human anti-c-erbB-2 scFv, SEQ ID NO: 1, ATCC plasmid deposit PTA-7843, also referred to as 3TF5 (protein)
scFv: QVQLVESGGGLVQPGGSLRLSCAASGFTFRSYAMSWVRQAPGKGLEWVSAISGRGDNTYYADSVKGRFTISRDNSKNTLYLQMNSLRAEDTAVYYCAKMTSNAFAFDYWGQGTLVTVSSGGGGSGGGGSGGGGSQSVLTQPPSVSGAPGQRVTISCTGSSSNIGAGYGVHWYQQLPGTAPKLLIYGNTNRPSGVPDRFSGFKSGTSASLAITGLQAEDEADYYCQFYDSSLSGWVFGGGTKLTVLG
- internalization of native purified scFv by SKBR3 cells (in words) [3]: efficiently internalized; also recorded: internalized faster than C6.5
- internalization of phage by SKBR3 cells at 4° C. (in words) [3]: no internalization
- cells that had internalized phage ([3]; 37° C.): greater than 95%
- internalization of phage by SKBR3 cells (in words) ([3]; 37° C.): internalized
- staining of MCF7 cells by native purified scFv ([9]; native purified scFv): minimal staining
- staining of MCF7 cells by phage antibody ([9]; phage-displayed): much more intensely then C6.5
- staining of SK-OV-3 cells by native purified scFv [10]: intermediate staining
- staining of normal breast cell line HST578 by native purified scFv [11]: do not stain
- epitope of F5 and C1 relative to each other ([12]; competition assay): recognize the same epitope
- epitope relative to C6.5 ([12]; competition assay): a different epitope than C6.5
- epitope relative to Genentech anti-ErbB2 antibody 4D5 ([12]; competition assay): recognize a different epitope
- inhibition of binding of C6.5 phage by soluble scFv [12, 15]: not
- inhibition of binding of F5 or C1 phage by soluble scFv [12, 15]: inhibited
- oligomeric state by gel filtration [13]: only as a monomer with no appreciable dimerization or aggregation
- staining of SKBR3 cells by native purified scFv ([14]; native purified scFv): intensely stain
- staining of SKBR3 cells by phage antibody [14]: intensely stain
- staining of SKBR3 cells by phage antibody ([14]; listed as 3TF5 phage): more intensely than C6.5 phage

— US7244826B1, “Internalizing ERB2 antibodies” (The Regents of the University of California, priority 1998, dated 2007)
